US20190038707A1

Key:
[1] = target: HCN channels (mediating Ih) in CA1 pyramidal neurons of TRIP8b KO mice; test: cell-based or functional assay
[2] = target: HCN1, hyperpolarization-activated cyclic nucleotide-gated channel pore-forming subunit 1, endogenous in CA1 pyramidal neurons of TRIP8b KO mice (mouse) (UniProt O88704); test: cell-based or functional assay
UniProt O88704, sequence (O88704 whole entry): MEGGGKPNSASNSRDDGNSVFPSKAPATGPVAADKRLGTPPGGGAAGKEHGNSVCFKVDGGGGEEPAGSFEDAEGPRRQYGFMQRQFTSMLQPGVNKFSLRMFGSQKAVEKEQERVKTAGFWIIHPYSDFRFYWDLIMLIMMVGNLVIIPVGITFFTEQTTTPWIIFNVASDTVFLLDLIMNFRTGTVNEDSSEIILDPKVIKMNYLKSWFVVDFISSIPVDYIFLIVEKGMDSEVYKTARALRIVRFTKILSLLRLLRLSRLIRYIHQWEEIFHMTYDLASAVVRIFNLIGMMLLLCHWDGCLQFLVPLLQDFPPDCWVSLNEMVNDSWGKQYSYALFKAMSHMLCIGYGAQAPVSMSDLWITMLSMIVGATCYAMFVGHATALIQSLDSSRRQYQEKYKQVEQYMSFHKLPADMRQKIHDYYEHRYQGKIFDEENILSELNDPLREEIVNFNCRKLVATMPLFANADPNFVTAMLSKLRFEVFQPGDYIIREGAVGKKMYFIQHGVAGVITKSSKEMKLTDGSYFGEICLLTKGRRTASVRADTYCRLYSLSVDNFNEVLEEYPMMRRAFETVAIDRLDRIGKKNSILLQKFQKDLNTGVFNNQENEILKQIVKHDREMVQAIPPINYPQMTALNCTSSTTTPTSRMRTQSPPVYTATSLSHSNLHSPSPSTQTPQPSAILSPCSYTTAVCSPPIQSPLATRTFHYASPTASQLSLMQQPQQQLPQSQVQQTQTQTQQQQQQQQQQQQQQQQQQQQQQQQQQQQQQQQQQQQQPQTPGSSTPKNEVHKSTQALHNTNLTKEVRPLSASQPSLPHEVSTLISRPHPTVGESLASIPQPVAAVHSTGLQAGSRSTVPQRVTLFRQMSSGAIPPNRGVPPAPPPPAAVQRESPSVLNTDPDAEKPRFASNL

Row | Ih amplitude, voltage clamp, TRIP8b KO mice [1] | sag ratio, somatic whole cell recordings, TRIP8b KO mice [1] | HCN1 staining in the SLM layer of CA1, injected hemisphere scaled by contralateral hemisphere (immunohistochemistry) (fold of uninjected hemisphere) [2] | Ih amplitude, somatic voltage clamp recordings, TRIP8b KO mice [1] | sag ratio (ΔVmax/ΔVsteady-state), whole cell recordings from eGFP positive CA1 pyramidal neurons of TRIP8b KO mice [1] | HCN1 staining in the SLM of CA1, injected hemisphere relative to uninjected hemisphere (immunohistochemistry) (fold of uninjected hemisphere) [2] | Substance
1 | 0.27 pA/pF | 1.09 | 0.98 | – | – | – | TRIP8b(1a-4)(Δ58), expressed from AAV-TRIP8b(Δ58)
2 | 0.282 pA/pF | 1.11 | 0.78 | – | – | – | TRIP8b(1a-4)(TPR3-N13A), expressed from AAV-TRIP8b(N13A)
3 | – | – | – | 0.68 pA/pF | 1.27 | 1.52 | TRIP8b(1a-4), tetratricopeptide repeat-containing Rab8b interacting protein, isoform comprised of exons 1a, 4 and 5-16, wild type, expressed from AAV-TRIP8b-IRES-eGFP
4 | – | – | 0.99 | – | – | – | TRIP8b(Δ58/N13A) double mutant, expressed from AAV-TRIP8b(Δ58/N13A)
